One assay has as its target T1, Mouse IL-2 (mouse, UniProt P04351 21-169).
T1 sequence (looked up): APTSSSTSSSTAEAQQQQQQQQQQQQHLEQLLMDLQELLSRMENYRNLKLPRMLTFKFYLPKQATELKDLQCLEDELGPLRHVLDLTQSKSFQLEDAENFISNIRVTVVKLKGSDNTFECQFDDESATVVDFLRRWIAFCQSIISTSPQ
The assay is described as follows: SPR (Biacore 4000), IgG captured on anti-human Fc, IL-2 injected. For orientation: SPR reads the build-up and loss of mass on a sensor chip optically.

The target in another assay is T2, Rat IL-2 (rat, UniProt P17108 21-155).
T2 sequence (looked up): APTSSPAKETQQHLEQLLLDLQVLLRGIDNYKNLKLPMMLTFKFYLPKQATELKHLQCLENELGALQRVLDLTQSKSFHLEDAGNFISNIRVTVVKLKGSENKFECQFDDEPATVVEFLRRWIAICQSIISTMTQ
Described as above.

For assay [1], the target named is T3, Recombinant human IL-2 (human, UniProt P60568 21-153). The assay is described as follows: cell-based or functional assay.
Assay [2] concerns the target T3, Recombinant human IL-2. Kind of assay: cell-based or functional assay. This is another data set of the same source.
For assay [3], the target named is T3, Recombinant human IL-2. Kind of assay: cell-based or functional assay. This is another data set of the same source.
For assay [4], the target named is T3, Recombinant human IL-2. Kind of assay: SPR (Biacore 4000), IgG captured on anti-human IgG Fc, rhIL-2 0.11-10 nM. As to the method:
(§1) Antibody affinities were measured by SPR using the Biacore 4000 with a standard capture methodology. Briefly, anti-human IgG (Fc specific) from an anti-human antibody capture kit (Biacore) was immobilized onto spots 1, 2, 4, and 5 of all four flow cells of a CM-5 sensor chip by amine coupling according to the manufacturer's instructions. Running buffer was HBS-EP+ with 1% BSA. […] Data were analyzed using the Biacore 4000 Evaluation software.

Assay [5] concerns the target T3, Recombinant human IL-2. The assay is described as follows: cell-based or functional assay. This is another data set of the same source.
The target of a further assay is T4, Rabbit IL-2 (rabbit, UniProt O77620 21-153, limits assumed).
T4 sequence (looked up): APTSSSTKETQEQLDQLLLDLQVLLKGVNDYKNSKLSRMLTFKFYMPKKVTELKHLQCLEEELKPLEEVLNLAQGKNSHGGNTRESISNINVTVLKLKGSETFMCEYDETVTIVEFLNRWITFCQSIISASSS
The assay is described as follows: SPR (Biacore 4000), IgG captured on anti-human IgG Fc, IL-2 30 nM to 1 nM; affinity estimate. As to the method:
as §1
These sequences were imported into vector NTI® (Lifetech) and aligned using the alignx tool.

Assay [6] has as its target T3, Recombinant human IL-2. Kind of assay: cell-based or functional assay. This is another data set of the same source.

We go through one molecule from patent US20180094053A1 (XOMA US, published 2018).

B1: XPA.92.099 (antibody, V domains shown)
VH: QVQLVESGGGLVKPGRSLRLSCAASGFTFNRYAMSWVRQAPGKGLEWVAMISFDGGNQYYTDSVSGRFTISRDNSKTTLFLQMDSLRTEDTAVYYCVRSPAGDWVAYFDYWGQGTLVTVSS
VL: DIQMTQSPSSLSASIGDRVTIPCQASEDISNHLSWYQQKPGKAPKPLIFDASDLETGVPSRFSGSGSGTDFALTISSLRPDDFATYYCHQYHDYPSYTFGHGTKLEIKR
notes: Tested as purified full-length human IgG; also called mAb99; clone 99
On to B1, for which the binding result with Mouse IL-2 is “no binding (tested: IL-2 injected from 30 nM to 1 nM)”. The binding result in the assay with Rat IL-2 was “no binding (tested: IL-2 injected from 30 nM to 1 nM)”. Further, the “Fold EC50 shift of IL-2-induced proliferation, CTLL-2 (muRαβγ)” value in the assay with Recombinant human IL-2 [1] amounted to 54 fold. In addition, in the assay with Recombinant human IL-2 [2], the “Fold EC50 shift of IL-2-induced proliferation, BaF3/IL-2 HuRβγ” value is 2.4 fold; the “Fold EC50 shift of IL-2-induced proliferation, NK92 (huRαβγ)” value worked out at 22 fold; the “Ratio (huRαβγ/Rβγ) of fold EC50 shifts, proliferation” value was 9. In addition, in the assay with Recombinant human IL-2 [3], the “pSTAT5a,b Ratio of EC50s (Rαβγ/Rβγ), human cells” value was found to be 21; the “pSTAT5a,b fold EC50 shift, Human Primary NK cells (huRβγ)” value was 24 fold; the “pSTAT5a,b fold EC50 shift, NK92 (huRαβγ)” value came to 495 fold. In addition, in the assay with Recombinant human IL-2 [4], the Kd (as a rule, the free concentration of one partner at which half of the binding sites on the other are occupied at equilibrium, for simple one-to-one binding) was determined as 0.044 nM; the koff – broadly, a measure of how fast the partners let go of each other – is 0.00024 s⁻¹; the association rate constant (kon) (as a rule, a measure of how fast the partners come together) was 5.5e+06 M⁻¹ s⁻¹. For the same molecule, in the assay with Recombinant human IL-2 [5], the “pSTAT5a,b Ratio of EC50s (Rαβγ/Rβγ), murine cells” value amounted to 17; the “pSTAT5a,b fold EC50 shift, CTLL-2 (muRαβγ)” value was determined as 293 fold; the “pSTAT5a,b fold EC50 shift, Mouse Primary NK cells (muβγ)” value stood at 17 fold. Also, the Kd with Rabbit IL-2 is 0.09 nM. Moreover, in the assay with Recombinant human IL-2 [6], the “EC50 of IL-2-induced pSTAT5a,b in CD25-depleted human primary NK cells with 100 nM antibody” value is 3050 pM and the “EC50 of IL-2-induced pSTAT5a,b in NK-92 cells with 100 nM antibody” value is 463 pM.
